# From publication PMC10801921
# T1: ARR1 RD-DBD D89E (Arabidopsis thaliana, UniProt Q940D0 1-301, D89E)
# T1 sequence: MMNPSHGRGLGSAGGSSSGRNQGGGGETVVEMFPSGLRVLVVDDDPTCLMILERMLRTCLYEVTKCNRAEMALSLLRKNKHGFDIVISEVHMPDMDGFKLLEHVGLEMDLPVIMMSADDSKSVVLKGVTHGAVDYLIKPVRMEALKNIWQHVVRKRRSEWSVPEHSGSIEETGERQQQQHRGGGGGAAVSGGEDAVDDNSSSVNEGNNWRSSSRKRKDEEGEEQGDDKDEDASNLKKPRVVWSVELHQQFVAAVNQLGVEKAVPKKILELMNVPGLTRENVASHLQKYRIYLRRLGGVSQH
# T2: ARR1 RD-DBD R294A (Arabidopsis thaliana, UniProt Q940D0 1-301, R294A)
# T2 sequence: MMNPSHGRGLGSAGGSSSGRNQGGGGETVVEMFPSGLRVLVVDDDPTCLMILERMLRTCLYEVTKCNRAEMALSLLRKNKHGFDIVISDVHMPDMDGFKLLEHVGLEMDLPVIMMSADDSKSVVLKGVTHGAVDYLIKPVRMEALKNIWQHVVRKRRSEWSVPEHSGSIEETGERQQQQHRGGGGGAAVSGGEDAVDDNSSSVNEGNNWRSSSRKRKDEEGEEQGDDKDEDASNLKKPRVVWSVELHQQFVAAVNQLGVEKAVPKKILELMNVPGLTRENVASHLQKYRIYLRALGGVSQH
# T3: ARR1 DBD (crystal) (Arabidopsis thaliana, UniProt Q940D0 221-301)
# T3 sequence: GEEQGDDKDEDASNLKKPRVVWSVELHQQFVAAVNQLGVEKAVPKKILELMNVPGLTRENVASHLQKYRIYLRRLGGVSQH
# Assays:
# ARR1 RD-DBD D89E = target: T1, ARR1 RD-DBD D89E; assay: BLI
# ARR1 RD-DBD R294A = target: T2, ARR1 RD-DBD R294A; assay: BLI
# ARR1 DBD (crystal) = target: T3, ARR1 DBD (crystal); assay: X-ray crystallography
Binder,binding result (ARR1 RD-DBD D89E),binding result (ARR1 RD-DBD R294A),binding result (ARR1 DBD (crystal))
DNA-TCS 40 bp (ARR6-40) (dsDNA) DNA 1: GGATTAGATTAGATTAATCTGGATTAGATTAATCTAGATT DNA 2: AATCTAGATTAATCTAATCCAGATTAATCTAATCTAATCC,binds,binds,
DNA-TCS 25 bp (crystal) (dsDNA) DNA 1: AATCCAGATTAATCTAATCTAATCC DNA 2: GGATTAGATTAGATTAATCTGGATT,,,binds
